Experimental data from PMC11821514 (Nature Cell Biology, 2025).

T1: GST–Atg11^685–1178 (budding yeast, UniProt Q12527 685-1178)
T1 construct: also called C-terminal fragment of Atg11; not shown: GST, N-terminal, kept
T1 sequence (looked up): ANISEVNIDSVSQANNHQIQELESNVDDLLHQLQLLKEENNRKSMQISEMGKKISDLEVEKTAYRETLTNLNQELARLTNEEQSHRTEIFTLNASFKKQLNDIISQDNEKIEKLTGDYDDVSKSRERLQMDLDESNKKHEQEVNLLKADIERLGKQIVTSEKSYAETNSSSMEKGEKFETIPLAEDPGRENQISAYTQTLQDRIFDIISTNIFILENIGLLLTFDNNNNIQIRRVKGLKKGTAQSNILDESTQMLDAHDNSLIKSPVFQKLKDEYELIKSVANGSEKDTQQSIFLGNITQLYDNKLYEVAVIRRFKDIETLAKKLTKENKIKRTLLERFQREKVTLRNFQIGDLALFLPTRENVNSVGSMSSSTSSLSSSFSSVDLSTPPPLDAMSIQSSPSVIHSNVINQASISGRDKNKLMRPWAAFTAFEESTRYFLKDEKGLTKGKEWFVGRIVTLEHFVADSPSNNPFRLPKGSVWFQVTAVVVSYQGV

T2: StrepII–GFP–Atg11 (budding yeast, UniProt Q12527 1-1178)
T2 construct: Atg11, budding yeast; the ATG11 ORF was subcloned with an N-terminal StrepII–GFP tag into a pLIB vector; Used as preformed condensates (20 min at room temperature in 20 mM HEPES pH 7.5, 150 mM NaCl, 5 mM DTT); also called GFP–Atg11 condensates; GFP–Atg11 droplets; source: Sf9 insect cells, baculovirus, purified (Strep-TactinXT); not shown: GFP, N-terminal, kept
T2 sequence (looked up): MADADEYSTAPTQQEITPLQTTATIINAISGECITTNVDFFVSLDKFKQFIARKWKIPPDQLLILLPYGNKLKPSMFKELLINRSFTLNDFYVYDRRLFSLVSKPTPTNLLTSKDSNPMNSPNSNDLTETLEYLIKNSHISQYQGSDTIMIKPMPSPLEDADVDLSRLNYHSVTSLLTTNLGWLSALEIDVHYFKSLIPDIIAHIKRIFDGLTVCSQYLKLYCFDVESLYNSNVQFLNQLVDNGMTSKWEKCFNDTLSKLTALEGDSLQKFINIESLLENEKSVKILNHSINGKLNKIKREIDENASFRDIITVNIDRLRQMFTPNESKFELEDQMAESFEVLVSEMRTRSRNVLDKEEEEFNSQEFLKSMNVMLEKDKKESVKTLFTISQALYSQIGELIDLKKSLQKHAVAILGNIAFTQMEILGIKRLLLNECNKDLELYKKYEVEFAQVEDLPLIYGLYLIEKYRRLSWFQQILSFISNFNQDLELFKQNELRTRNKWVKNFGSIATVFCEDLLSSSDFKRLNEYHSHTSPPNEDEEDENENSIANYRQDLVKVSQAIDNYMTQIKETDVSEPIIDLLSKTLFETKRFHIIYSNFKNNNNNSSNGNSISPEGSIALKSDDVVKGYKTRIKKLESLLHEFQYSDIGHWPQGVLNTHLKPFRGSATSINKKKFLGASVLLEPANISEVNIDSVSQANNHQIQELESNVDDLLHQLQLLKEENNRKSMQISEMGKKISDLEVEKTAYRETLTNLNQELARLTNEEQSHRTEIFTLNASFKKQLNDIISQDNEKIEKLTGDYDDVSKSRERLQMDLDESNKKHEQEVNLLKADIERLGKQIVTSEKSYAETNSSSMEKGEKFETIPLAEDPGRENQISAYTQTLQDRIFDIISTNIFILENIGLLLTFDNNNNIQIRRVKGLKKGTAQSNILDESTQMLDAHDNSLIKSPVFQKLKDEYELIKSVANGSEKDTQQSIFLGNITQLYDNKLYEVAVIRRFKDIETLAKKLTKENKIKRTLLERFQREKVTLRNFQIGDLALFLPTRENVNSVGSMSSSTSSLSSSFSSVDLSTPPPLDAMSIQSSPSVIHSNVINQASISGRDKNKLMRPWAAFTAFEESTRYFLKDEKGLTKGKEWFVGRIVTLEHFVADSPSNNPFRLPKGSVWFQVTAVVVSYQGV

B1: Atg19^3D (natural protein, budding yeast, UniProt P35193 1-415, looked up)
chain: MNNSKTNQQMNTSMGYPLTVYDECNKFQLIVPTLDANIMLWCIGQLSLLNDSNGCKHLFWQPNDKSNVRILLNNYDYGHLFKYLQCQRKCSVYIGEGTLKKYNLTISTSFDNFLDLTPSEEKESLCREDAHEDPVSPKAGSEEEISPNSTSNVVVSRECLDNFMKQLLKLEESLNKLELEQKVTNKEPNHRISGTIDIPEDRSELVNFFTELKTVKQLEDVFQRYHDYERLSQECDSKTEIASDHSKKETKIEVEPPNERSLQITMNQRDNSLYFQLFNNTNSVLAGNCKLKFTDAGDKPTTQIIDMGPHEIGIKEYKEYRYFPYALDLEAGSTIEIENQYGEVIFLGKYGSSPMINLRPPSRLSAESLQASQEPFYSFQIDTLPELDDDDIISTDISLSYDGDDNEKALTWEEL
notes: Atg19, budding yeast, phospho-mimetic mutant S390D, S391D, S396D; also called purified recombinant Atg19^3D; source: E. coli BL21(DE3), expressed as GST–Atg19^3D from pGEX-4T.1, purified (GSH beads, thrombin elution, Superdex200); not shown: GST, N-terminal, cleaved
B2: GST–mTagBFP–Atg19^3D (natural protein, budding yeast, UniProt P35193 1-415, looked up)
chain: MNNSKTNQQMNTSMGYPLTVYDECNKFQLIVPTLDANIMLWCIGQLSLLNDSNGCKHLFWQPNDKSNVRILLNNYDYGHLFKYLQCQRKCSVYIGEGTLKKYNLTISTSFDNFLDLTPSEEKESLCREDAHEDPVSPKAGSEEEISPNSTSNVVVSRECLDNFMKQLLKLEESLNKLELEQKVTNKEPNHRISGTIDIPEDRSELVNFFTELKTVKQLEDVFQRYHDYERLSQECDSKTEIASDHSKKETKIEVEPPNERSLQITMNQRDNSLYFQLFNNTNSVLAGNCKLKFTDAGDKPTTQIIDMGPHEIGIKEYKEYRYFPYALDLEAGSTIEIENQYGEVIFLGKYGSSPMINLRPPSRLSAESLQASQEPFYSFQIDTLPELDDDDIISTDISLSYDGDDNEKALTWEEL
notes: Atg19, budding yeast, phospho-mimetic mutant S390D, S391D, S396D; also called GST–BFP–Atg19^3D; Atg19^3D-decorated beads; not shown: GST, N-terminal, kept; mTagBFP, N-terminal, kept
B3: GST–BFP–Vac8 (natural protein, budding yeast, UniProt P39968 1-578, looked up)
chain: MGSCCSCLKDSSDEASVSPIADNEREAVTLLLGYLEDKDQLDFYSGGPLKALTTLVYSDNLNLQRSAALAFAEITEKYVRQVSREVLEPILILLQSQDPQIQVAACAALGNLAVNNENKLLIVEMGGLEPLINQMMGDNVEVQCNAVGCITNLATRDDNKHKIATSGALIPLTKLAKSKHIRVQRNATGALLNMTHSEENRKELVNAGAVPVLVSLLSSTDPDVQYYCTTALSNIAVDEANRKKLAQTEPRLVSKLVSLMDSPSSRVKCQATLALRNLASDTSYQLEIVRAGGLPHLVKLIQSDSIPLVLASVACIRNISIHPLNEGLIVDAGFLKPLVRLLDYKDSEEIQCHAVSTLRNLAASSEKNRKEFFESGAVEKCKELALDSPVSVQSEISACFAILALADVSKLDLLEANILDALIPMTFSQNQEVSGNAAAALANLCSRVNNYTKIIEAWDRPNEGIRGFLIRFLKSDYATFEHIALWTILQLLESHNDKVEDLVKNDDDIINGVRKMADVTFERLQRSGIDVKNPGSNNNPSSNDNNSNNNDTGSEHQPVEDASLELYNITQQILQFLH
notes: Vac8, vacuolar membrane protein, budding yeast; The results text says GST–Vac8, the legend GST–BFP–Vac8; also called GST–Vac8; recombinant GST–Vac8; not shown: GST, N-terminal, kept; BFP, N-terminal, kept

Assays:
GST–Atg11^685–1178 = target: T1, GST–Atg11^685–1178; experiment: pull-down; GST fusions on GSH beads incubated with purified recombinant Atg19^3D, 20 min at room temperature; six washes with GST-wash buffer containing 0.02% Tween-20; immunoblotting; conditions: both partners purified
StrepII–GFP–Atg11 = target: T2, StrepII–GFP–Atg11; experiment: bead binding assay read by fluorescence microscopy; GST–BFP fusion on GSH beads incubated with preformed GFP–Atg11 condensates (purified by the methods and results, Sf9 lysate by the legends), 20 min at room temperature; imaged before and after eight washes with 20 mM HEPES pH 7.5, 150 mM NaCl, 5 mM DTT; conditions: both partners purified

Binder	binding result (GST–Atg11^685–1178)	binding result (StrepII–GFP–Atg11)
B1	binds	–
B2	–	binds
B3	–	binds
